Results published in doi:10.1101/660712 (bioRxiv, 2019).

Target: His-tagged CP47 (PSII core antenna protein CP47) (Synechocystis sp. PCC 6803, UniProt P05429 1-507)
Assay: AUC

Sequence of His-tagged CP47 (PSII core antenna protein CP47) (P05429 whole entry): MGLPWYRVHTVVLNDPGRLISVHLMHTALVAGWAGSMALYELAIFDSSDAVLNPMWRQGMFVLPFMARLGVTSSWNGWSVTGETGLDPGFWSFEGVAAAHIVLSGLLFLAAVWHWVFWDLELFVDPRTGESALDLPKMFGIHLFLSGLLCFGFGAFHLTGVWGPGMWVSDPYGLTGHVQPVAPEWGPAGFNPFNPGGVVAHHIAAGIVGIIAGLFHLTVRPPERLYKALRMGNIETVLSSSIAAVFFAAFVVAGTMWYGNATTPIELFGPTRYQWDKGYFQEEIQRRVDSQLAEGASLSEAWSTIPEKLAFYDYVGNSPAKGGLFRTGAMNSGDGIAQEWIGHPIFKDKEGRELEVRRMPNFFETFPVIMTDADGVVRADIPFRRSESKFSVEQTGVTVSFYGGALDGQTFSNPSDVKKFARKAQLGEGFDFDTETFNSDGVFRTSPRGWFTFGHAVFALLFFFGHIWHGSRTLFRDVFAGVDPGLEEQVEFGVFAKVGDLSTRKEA

B1: CP43 (PSII core antenna protein) (natural protein)
chain: not shown
- stoichiometry N: ~1
